Measurements as given in the RNAGym collection of RNA variant scans (doi:10.7554/elife.80360).

B1: HDV Ribozyme (parent)
chain: GGCCGGCAUGGUCCCAGCCUCCUCGCUGGCGCCGGCUGGGCAACAUUCCGAGGGGACCGUCCCCUCGGUAAUGGCGAAUGGGACCCA

Variants of: B1
Assay: self-cleavage, relative activity (ratio to wild type); higher = more cleavage; co-transcriptional
Work on GGCCGGCAUGGUUCCAGCCUCCUCGCUGGCGCCGGCUGCGCAACAUUCCGAGGGGACCGUCCCCUCGGUAAUGGCGAAUGGGACCCA [C13U G39C] yielded a self-cleavage of 0.0369.
GGCCGGCAUGGUUCCAGCCUCCUCGCUGGCGCCGGCUGAGCAACAUUCCGAGGGGACCGUCCCCUCGGUAAUGGCGAAUGGGACCCA [C13U G39A] gave a self-cleavage of 0.332.
Work on GGCCGGCAUGGUUCCAGCCUCCUCGCUGGCGCCGGCUGGGCAACAUUCCGAGGGGACCGUCCCCUCCGUAAUGGCGAAUGGGACCCA [C13U G67C] yielded a self-cleavage of 0.374.
GGCCGGCAUGGUUCCAGCCUCCUCGCUGGCGCCGGCUGGGCAACAUUCCGAGGGGACCGUCCCCUCAGUAAUGGCGAAUGGGACCCA [C13U G67A] showed a self-cleavage of 0.572.
In the case of GGCCGGCAUGGUUCCAGCCUCCUCGCUGGCGCCGGCUGGGCAACAUUCCGAGGAGACCGUCCCCUCGGUAAUGGCGAAUGGGACCCA [C13U G54A], the self-cleavage is reported as 0.739.
GGCCGGCAUGGUUCCAGCCUCCUCGCUGGCGCCGGCUGGGCAACAUUCCAAGGGGACCGUCCCCUCGGUAAUGGCGAAUGGGACCCA [C13U G50A] showed a self-cleavage of 0.439.
GGCCGGCAUGGUUCCAGCCUCCUCGCUGGCGCCGGCUGGGCAACAUUCCGAGGGGACCGUCCCCUCGGUAAUGGCGAAUGGGACCAA [C13U C86A] showed a self-cleavage of 0.96.
Work on GGCCGGCAUGGUUCCAGCCUCCUCGCUGGCGCCGGCUAGGCAACAUUCCGAGGGGACCGUCCCCUCGGUAAUGGCGAAUGGGACCCA [C13U G38A] yielded a self-cleavage of 0.138.
In the case of GGCCGGCAUGGUUCCAGCCUCCUCGCUGGCGCCGGCUUGGCAACAUUCCGAGGGGACCGUCCCCUCGGUAAUGGCGAAUGGGACCCA [C13U G38U], the self-cleavage is reported as 0.149.
With GGCCGGCAUGGUUCCAGCCUCCUCGCUGGCGCCGGCUGGGCAACAUUCCGAGGGGACCGUCCCCUCGGUAAUGGGGAAUGGGACCCA [C13U C75G] the self-cleavage was 0.0723.
Variant GGCCGGCAUGGUUCCAGCCUCCUCGCUGGCGCCGGCUGGGCAACAUUCCGAGGGGACCGUCCCCUUGGUAAUGGCGAAUGGGACCCA [C13U C66U] has a self-cleavage of 0.698.
Work on GGCCGGCAUGGUUCCAGCCUCCUCGCUGGCGCCGGCUGGGCAACAUUCCGAGGGGACCGUCCCCUCGGUAAUGCCGAAUGGGACCCA [C13U G74C] yielded a self-cleavage of 0.0627.
Variant GGCCGGCAUGGUUCCAGCCUCCUCGCUGGCGCCGGCUGGACAACAUUCCGAGGGGACCGUCCCCUCGGUAAUGGCGAAUGGGACCCA [C13U G40A] has a self-cleavage of 0.365.
With GGCCGGCAUGGUUCCAGCCUCCUCGCUGGCGCCGGCUGGGCAACAUUCCGAGGGGACCGUCCCCUCGGUAAUGGCGAAUGGGAGCCA [C13U C84G] the self-cleavage was 0.969.
For GGCCGGCAUGGUUCCAGCCUCCUCGCUGGCGCCGGCUGGGCAACAUUCCGAGGGGACCGUCCCCUCGGUAAUGGCGAAUGGGAACCA [C13U C84A], the self-cleavage was 0.911.
With GGCCGGCAUGGUUCCAGCCUCCUCGCUGGCGCCUGCUGGGCAACAUUCCGAGGGGACCGUCCCCUCGGUAAUGGCGAAUGGGACCCA [C13U G34U] the self-cleavage was 0.0268.
GGCCGGCAUGGUUCCAGCCUCCUCGCUGGCGCCCGCUGGGCAACAUUCCGAGGGGACCGUCCCCUCGGUAAUGGCGAAUGGGACCCA [C13U G34C] gave a self-cleavage of 0.0898.
Variant GGCCGGCAUGGUUCCAGCCUCCUCGCUGUCGCCGGCUGGGCAACAUUCCGAGGGGACCGUCCCCUCGGUAAUGGCGAAUGGGACCCA [C13U G29U] has a self-cleavage of 0.0707.
With GGCCGGCAUGGUUCCAGCCUCCUCGCUAGCGCCGGCUGGGCAACAUUCCGAGGGGACCGUCCCCUCGGUAAUGGCGAAUGGGACCCA [C13U G28A] the self-cleavage was 0.128.
GGCCGGCAUGGUUCCAGCCUCCUCGCUGGCCCCGGCUGGGCAACAUUCCGAGGGGACCGUCCCCUCGGUAAUGGCGAAUGGGACCCA [C13U G31C] gave a self-cleavage of 0.198.
For GGCCGGCAUGGUUCCAGCCUCCUCGCUGGCACCGGCUGGGCAACAUUCCGAGGGGACCGUCCCCUCGGUAAUGGCGAAUGGGACCCA [C13U G31A], the self-cleavage was 0.131.
GGCCGGCAUGGUUCCAGCCUCCUCGCUGGCGCCGGCUGGGCAACAUUCCGAGGGGACCGUCCCCUCGGUAAUAGCGAAUGGGACCCA [C13U G73A] showed a self-cleavage of 0.128.
GGCCGGCAUGGUUCCAGCCUCCUCGCUGGCGCCGGCUGGGCAACAUUCCGAGGGGACCGUCCCCUCGGUAAUUGCGAAUGGGACCCA [C13U G73U] gave a self-cleavage of 0.0875.
GGCCGGCAUGGUUCCAGCCUCCUCGCUGGCGCCGGCUGGGCAACAUUCCGACGGGACCGUCCCCUCGGUAAUGGCGAAUGGGACCCA [C13U G52C] showed a self-cleavage of 0.639.
With GGCCGGCAUGGUUCCAGCCUCCUCGCUGGCGCCGGCUGGGCAACAUUCCGAGGGAACCGUCCCCUCGGUAAUGGCGAAUGGGACCCA [C13U G55A] the self-cleavage was 0.702.
For GGCCGGCAUGGUUCCAGCCUCCUCGCUGGCGCCGGCUGGGCAACAUUCCGAGGGGACCAUCCCCUCGGUAAUGGCGAAUGGGACCCA [C13U G59A], the self-cleavage was 0.763.
In the case of GGCCGGCAUGGUUCCAGCCUCCUCUCUGGCGCCGGCUGGGCAACAUUCCGAGGGGACCGUCCCCUCGGUAAUGGCGAAUGGGACCCA [C13U G25U], the self-cleavage is reported as 0.
Work on GGCCGGCAUGGUUCCAGCCUCCUCCCUGGCGCCGGCUGGGCAACAUUCCGAGGGGACCGUCCCCUCGGUAAUGGCGAAUGGGACCCA [C13U G25C] yielded a self-cleavage of 0.0723.
Variant GGCCGGCAUGGUUCCAGCCUCCUCGCUGGCGCCGGCUGGGCAACAUUCCGAGGGGACCGUCCCCUCGGUAAUGGCGAAUGGGACACA [C13U C85A] has a self-cleavage of 0.475.
Work on GGCCGGCAUGGUUCCAGCCUCCUCGCUGGCGCCGGCUGGGCAACAUUCCGAGGGGACCGUCCCCUCGGUAAUGGCGAAUGGGACGCA [C13U C85G] yielded a self-cleavage of 0.332.
Variant GGCCGGCAUGGUUCCAGCCUCCUCGCUGGCGCCGGCUGGGCAACAUUCCGAGGGGACCGUCCCCUCGGUAAUGGCGAAUGGGACUCA [C13U C85U] has a self-cleavage of 0.332.
Variant GGCCGGCAUGGUUCCAGCCUCCUCGCUGGCGCCGGCUGGGCAACAUUCCGAGUGGACCGUCCCCUCGGUAAUGGCGAAUGGGACCCA [C13U G53U] has a self-cleavage of 0.671.
